Laboratory results: patent publication US20240327530A1 (ICHNOS SCIENCES, published 2024)
Each block holds one binder with its values, some of them ahead of it.

Tests used:
[1] = biological target: T1, Mouse IL-1RAP, membrane-bound on NIH-3T3 cells (mouse, UniProt Q61730 21-570); assay: cell-based or functional assay
T1 sequence (looked up): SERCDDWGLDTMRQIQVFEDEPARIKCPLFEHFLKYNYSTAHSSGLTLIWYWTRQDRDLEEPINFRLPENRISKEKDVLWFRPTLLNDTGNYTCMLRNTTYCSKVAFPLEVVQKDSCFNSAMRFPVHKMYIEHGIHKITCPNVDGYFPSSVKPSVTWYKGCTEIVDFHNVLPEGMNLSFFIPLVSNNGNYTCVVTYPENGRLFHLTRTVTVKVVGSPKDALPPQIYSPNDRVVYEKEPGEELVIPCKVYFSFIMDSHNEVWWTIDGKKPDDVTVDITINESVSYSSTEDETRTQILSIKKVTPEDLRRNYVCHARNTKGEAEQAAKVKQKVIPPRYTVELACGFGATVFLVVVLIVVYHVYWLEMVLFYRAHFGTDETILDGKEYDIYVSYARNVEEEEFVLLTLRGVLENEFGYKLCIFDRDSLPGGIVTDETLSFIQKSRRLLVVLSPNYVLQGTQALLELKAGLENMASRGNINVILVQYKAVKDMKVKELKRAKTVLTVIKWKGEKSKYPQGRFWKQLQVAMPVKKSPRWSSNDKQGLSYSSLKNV

[2] = biological target: T2, Cynomolgus IL-1RAP on normal cynomolgus dermal fibroblasts (cynomolgus monkey, UniProt P59822 21-570 (rhesus entry)); assay: flow cytometry on normal cynomolgus fibroblasts, nonlinear sigmoidal regression
T2 construct: Endogenous protein on cells; also called Cyno IL-1RAP
T2 sequence: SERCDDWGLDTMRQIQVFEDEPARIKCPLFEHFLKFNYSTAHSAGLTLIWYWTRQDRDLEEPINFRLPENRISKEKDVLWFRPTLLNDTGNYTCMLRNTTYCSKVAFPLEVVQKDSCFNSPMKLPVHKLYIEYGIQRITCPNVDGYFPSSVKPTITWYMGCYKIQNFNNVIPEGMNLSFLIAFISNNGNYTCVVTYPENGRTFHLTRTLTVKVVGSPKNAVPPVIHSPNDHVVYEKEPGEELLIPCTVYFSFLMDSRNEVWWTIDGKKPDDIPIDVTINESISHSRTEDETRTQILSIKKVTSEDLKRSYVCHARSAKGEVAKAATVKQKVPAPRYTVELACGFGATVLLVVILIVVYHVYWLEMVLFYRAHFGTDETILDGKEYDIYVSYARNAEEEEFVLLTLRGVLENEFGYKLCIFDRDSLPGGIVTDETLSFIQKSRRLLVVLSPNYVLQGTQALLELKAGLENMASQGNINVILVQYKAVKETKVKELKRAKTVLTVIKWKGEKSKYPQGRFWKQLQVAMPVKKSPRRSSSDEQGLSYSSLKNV
Description: Bound antibodies were detected with a monoclonal anti-human IgG PE-Cyanine7 secondary antibody. The graphs show the nonlinear sigmoidal regression binding curves (Relative Geometric Mean Fluorescence Intensity) for each cell lines. Each data point is a measurement for a given cell line. Multiple independent experiments were performed across several donors (HaCaT and HaCaT IL-1RAP KO: 4 and 3 independent experiments; Human Dermal Fibroblasts: 2 independent experiments—total of 5 donors; Human Neutrophil: 2 experiments—total of 6 donors; Cyno Dermal Fibroblasts: 2 independent experiment—total of 4 donors).
In brief, cells were harvested, counted, and plated at 50,000 cells/well in a 96-well round-bottom plate. The plate was centrifuged at 350 g for 3 minutes and the cells were resuspended in 50 μl of FACS® buffer (PBS (1×)+2.5% FCS+2 mM EDTA+0.05% NaN₃) containing various concentrations (ranging from 50 to 0.00003 μg/ml) of either anti-human IL-1RAP_candidate_1 or Isotype control_5 antibodies. […] The cells were gated based on size on FSC vs SSC and analyzed for PE-Cyanine7-geometric mean (geomean) fluorescence intensity using FLOWJO® software. Finally, relative geomean fluorescence intensity was calculated by subtracting fluorescence of anti-human IL-1RAP_candidate_1 per fluorescence of Isotype control_5. […]

hIL-33-stimulated NIH-3T3, mIL-6 release, EC50 of inhibition [1]: 1.02 nM
mIL-1b-stimulated NIH-3T3, mIL-6 release, EC50 of inhibition [1]: 3.14 nM
mIL-36s-stimulated NIH-3T3, mCXCL-1 release, EC50 of inhibition [1]: 1.68 nM
B1: Anti-IL-1RAP-C3-A3 mmIgG2a LALA (antibody, V domains shown)
VH: EVQLLESGGGLVQPGGSLRLSCAASGFIFSHYGMSWVRQAPGKGLEWVSAISYDGEGTLYADSVKGRFTISRDNSKNTLYLQMNSLRAEDTAVYYCARFRYYTAFDYWGQGTLVTVSS
VL: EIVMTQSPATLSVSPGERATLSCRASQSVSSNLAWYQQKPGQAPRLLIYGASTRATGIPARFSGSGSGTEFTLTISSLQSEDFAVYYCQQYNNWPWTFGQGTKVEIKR
notes: also called anti-IL-1RAP-C3-A3 mouse IgG2a LALA

Kd [2]: 1.55 nM
B2: Anti-IL-1RAP-C8-RecC-ES-IgG1LALA (antibody, V domains shown)
VH: QVQLVQSGAEVKKPGSSVKVSCKASGSPAEPYAIQWVRQAPGQGLEWMGYIIPSLGGYDYAQKFQGRVTITADESTSTAYMELSSLRSEDTAVYYCARGQTLYESGRQFDIWGQGTLVTVSS
VL: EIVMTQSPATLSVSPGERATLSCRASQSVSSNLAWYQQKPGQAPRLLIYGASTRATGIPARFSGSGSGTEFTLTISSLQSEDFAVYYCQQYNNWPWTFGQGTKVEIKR
notes: also called ISB 880-C8-recC-ES
